The results in this text go back to patent publication US20250235504A1, “ENHANCEMENT OF CD47 BLOCKADE WITH TAXANES FOR CD47+ CANCER THERAPY” (Pfizer Inc., priority 2021, published 2025).

For one assay, the target named is human CD47 (human) (UniProt Q08722). In words: cell-based or functional assay.
Assay [1] concerns human B cell lymphoma cell line (Toledo). Description: Macrophage phagocytosis assay with VPD450-labeled Toledo cells (flow cytometry). The conditions noted are these: two hours co-culture, FIG. 1. Format: cell-based. From the text:
Heparinized whole blood was obtained from normal healthy human donors (Biological Specialty Corporation) and informed consent was obtained from all donors. Peripheral blood mononuclear cells (PBMCs) were isolated over Ficoll-Paque Plus density gradient (GE Healthcare) and CD14+ monocytes were isolated from PBMCs by positive selection using CD14 antibody-coated MicroBead separation (Miltenyi Biotec). Monocytes were differentiated into macrophages by culturing for seven days in X-Vivo-15 media (Lonza) supplemented with M-CSF (PeproTech), at which point paclitaxel was added to the macrophage culture for an additional six days. On the day of the phagocytosis assay, macrophages were co-cultured with violet proliferation dye 450 (VPD450)-labeled human B cell lymphoma cell line (Toledo) in the presence of 1 μM human SIRPαFc (IgV domain of human SIRPα variant 2 fused with IgG1 Fc), 1 μM control Fc [human IgG1 Fc region (hinge-CH2-CH3)] or nothing (no treatment, NT) for two hours. Phagocytosis was assessed as % VPD450+ cells of live, single CD14+CD11b+ macrophages by flow cytometry. Results are shown in FIG. 1 and are duplicates from a single experiment.
(In general: Flow cytometry measures light scatter and fluorescence of single cells or particles in a stream.)

Sequence of UniProt Q08722 (Q08722 19-323): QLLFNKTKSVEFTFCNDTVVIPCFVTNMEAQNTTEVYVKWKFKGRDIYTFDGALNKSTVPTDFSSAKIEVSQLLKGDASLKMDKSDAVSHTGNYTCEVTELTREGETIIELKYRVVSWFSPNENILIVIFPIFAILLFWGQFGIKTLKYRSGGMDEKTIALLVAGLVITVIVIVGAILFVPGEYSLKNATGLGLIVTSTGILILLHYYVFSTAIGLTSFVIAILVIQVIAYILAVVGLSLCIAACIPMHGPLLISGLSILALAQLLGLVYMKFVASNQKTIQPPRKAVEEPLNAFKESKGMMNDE

In the assay with human CD47 (human), “human SIRPαFc (IgV domain of human SIRPα variant 2 fused with IgG1 Fc) (Fc fusion)” showed a % phagocytosis (% VPD450+ cells of live, single CD14+CD11b+ macrophages) of Toledo cells, 1 µM SIRPαFc, macrophages cultured in paclitaxel of 15% and a % phagocytosis (% VPD450+ cells of live, single CD14+CD11b+ macrophages) of Toledo cells, 1 µM SIRPαFc, macrophages not cultured in paclitaxel of 9%.

On to “SIRPαFc: IgV domain of human SIRPα variant 2 fused with IgG1 Fc”, for which, in assay [1] (1 μM SIRPαFc, "no treatment" macrophages (not cultured in paclitaxel)), the “% phagocytosis (% VPD450+ cells of live, single CD14+CD11b+ macrophages)” value was “around 9%”. Further, the “phagocytosis of the VPD450-labeled B cell lymphoma cells (in words)” value in assay [1] (1 μM protein) is “substantial phagocytosis”.
